We go through 2 substances from patent US20240366728A1, “Treatment of Diabetes Mellitus” (Carmot Therapeutics Inc., priority 2023, published 2024).

The experiment addresses mouse GLP-1R (mouse) (UniProt O35659). The experiment in a line: cell-based or functional assay.

Chain of mouse GLP-1R (mouse) (O35659 22-463): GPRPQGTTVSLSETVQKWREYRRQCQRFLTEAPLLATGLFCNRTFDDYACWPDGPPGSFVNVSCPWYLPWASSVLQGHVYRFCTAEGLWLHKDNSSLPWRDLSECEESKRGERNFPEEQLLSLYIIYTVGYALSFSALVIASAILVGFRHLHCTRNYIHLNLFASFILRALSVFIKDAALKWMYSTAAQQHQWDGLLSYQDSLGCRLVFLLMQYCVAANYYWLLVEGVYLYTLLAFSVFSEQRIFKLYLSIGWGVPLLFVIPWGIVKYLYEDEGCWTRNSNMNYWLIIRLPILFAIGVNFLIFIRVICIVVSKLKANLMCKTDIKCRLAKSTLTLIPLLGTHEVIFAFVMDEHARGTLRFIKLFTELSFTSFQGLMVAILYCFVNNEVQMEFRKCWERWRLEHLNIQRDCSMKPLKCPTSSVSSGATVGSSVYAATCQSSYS

“Human GLP-1 (7-36) (from UniProt P01275 21-180) (ligand)” had a cAMP accumulation EC50 of 3 pM and a β-arrestin-2 recruitment of 99%.
With Liraglutide (peptide), the mGLP-1R cAMP (-alb) % Emax is 92% and the mGLP-1R β-arrestin-2 % Emax was 80.7%.
